Reference: PMC8857464

Substrate: C[C@H](N)C(=O)O
Assay: purified protein
Conditions: nonoxidized enzyme (no H2O2), amino acid activation, 2 mM ATP, 2 mM PPi, 10 mM MgCl2, pH 7.2, 37 °C

B1: AlaRS (Escherichia coli K-12) (protein)
chain: SKSTAEIRQAFLDFFHSKGHQVVASSSLVPHNDPTLLFTNAGMNQFKDVFLGLDKRNYSRATTSQRCVRAGGKHNDLENVGYTARHHTFFEMLGNFSFGDYFKHDAIQFAWELLTSEKWFALPKERLWVTVYESDDEAYEIWEKEVGIPRERIIRIGDNKGAPYASDNFWQMGDTGPCGPCTEIFYDHGDHIWGGPPGSPEEDGDRYIEIWNIVFMQFNRQADGTMEPLPKPSVDTGMGLERIAAVLQHVNSNYDIDLFRTLIQAVAKVTGATDLSNKSLRVIADHIRSCAFLIADGVMPSNENRGYVLRRIIRRAVRHGNMLGAKETFFYKLVGPLIDVMGSAGEDLKRQQAQVEQVLKTEEEQFARTLERGLALLDEELAKLSGDTLDGETAFRLYDTYGFPVDLTADVCRERNIKVDEAGFEAAMEEQRRRAREASGFGADYNAMIRVDSASEFKGYDHLELNGKVTALFVDGKAVDAINAGQEAVVVLDQTPFYAESGGQVGDKGELKGANFSFAVEDTQKYGQAIGHIGKLAAGSLKVGDAVQADVDEARRARIRLNHSATHLMHAALRQVLGTHVSQKGSLVNDKVLRFDFSHNEAMKPEEIRAVEDLVNTQIRRNLPIETNIMDLEAAKAKGAMALFGEKYDERVRVLSMGDFSTELCGGTHASRTGDIGLFRIISESGTAAGVRRIEAVTGEGAIATVHADSDRLSEVAHLLKGDSNNLADKVRSVLERTRQLEKELQQLKEQAAAQESANLSSKAIDVNGVKLLVSELSGVEPKMLRTMVDDLKNQLGSTIIVLATVVEGKVSLIAGVSKDVTDRVKAGELIGMVAQQVGGKGGGRPDMAQAGGTDAAALPAALASVKGWVSAKLQ
B1 showed a Km of 329 ± 84.6 µM, a kcat of 16 s⁻¹ and a kcat/Km of 48300 M⁻¹ s⁻¹.
